These are literature values, as cited in publication PMC4526918.

The target of this series is HAESA-LIKE2 (HSL2) (Arabidopsis thaliana) (UniProt C0LGX3).
Chain of UniProt C0LGX3 (C0LGX3 29-632): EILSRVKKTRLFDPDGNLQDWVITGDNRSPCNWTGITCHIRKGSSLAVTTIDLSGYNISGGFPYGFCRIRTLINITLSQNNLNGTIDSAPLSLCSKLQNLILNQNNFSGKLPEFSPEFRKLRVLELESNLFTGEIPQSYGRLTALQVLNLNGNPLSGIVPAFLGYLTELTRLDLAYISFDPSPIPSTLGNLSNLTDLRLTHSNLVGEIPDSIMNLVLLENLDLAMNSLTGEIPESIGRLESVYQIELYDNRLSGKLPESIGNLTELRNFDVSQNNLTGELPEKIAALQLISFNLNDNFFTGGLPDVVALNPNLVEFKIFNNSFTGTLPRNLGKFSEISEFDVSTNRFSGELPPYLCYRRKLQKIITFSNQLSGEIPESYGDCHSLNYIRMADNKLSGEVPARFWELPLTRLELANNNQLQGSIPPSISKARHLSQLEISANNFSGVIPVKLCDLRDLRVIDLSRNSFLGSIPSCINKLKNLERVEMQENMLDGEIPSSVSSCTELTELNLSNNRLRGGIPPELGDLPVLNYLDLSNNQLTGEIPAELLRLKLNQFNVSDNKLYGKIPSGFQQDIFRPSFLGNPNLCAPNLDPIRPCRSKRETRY

For “IDA peptide (IDAp) (from UniProt Q8LAD7)”, the Kd – broadly, a measure of binding affinity in units of concentration – was 20 nM.
